The data set can be described thus: protein stability index of a GFP-peptide fusion (GPS, HEK-293T) (PSI 1-6); higher = more stable. The conditions noted are these: c terminus: a fixed tail appended.

± gives the standard deviation.
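Further: 24-mer peptide tiles fused after GFP, lentivirally expressed, FACS-sorted into six equal bins by GFP/DsRed ratio, decoded by Illumina sequencing, PSI is the read-weighted mean bin number.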

Turning to RRMAAEATEWQKAGAPPPSGSAVS [SRPK2], the protein stability index was 4.59 ± 0.42 (treatment: DMSO) and 4.68 ± 0.29 (treatment: MLN4924 1 uM, 8 h).
On the same counts, the results for RRQARREAEADKPRRLGRLKYQAP [NOP53] are 4.5 ± 0.35 and 4.6 ± 0.24.
On the same counts, the results for RRRRIIINVGGIKYSLPWTTLDEF [KCNG1] are 2.48 ± 0.44 and 2.46 ± 0.59.
On the same counts, the results for RSGSPTVPIKPPCIPNGKENFSGG [CAMK2D] are 4.2 ± 0.2 and 4.32 ± 0.21.
Consider RSLQDGTREGFGHSTSLKVPLARS [LCOR], for which the protein stability index is 4.38 ± 0.27 (treatment: DMSO) and 4.37 ± 0.12 (treatment: MLN4924 1 uM, 8 h).
On the same counts, the results for RSPDASPSRAPPSTQEPQSPREGE [GNAS] are 5.36 ± 0.12 and 5.42 ± 0.078.
On to RSSGLVQRRTEASRNAADKERAAG [GOLPH3], for which the protein stability index is 5.11 ± 0.3 (treatment: DMSO) and 5.14 ± 0.33 (treatment: MLN4924 1 uM, 8 h).
For RTMDIPRSVQNFRFFASSSLHHTS [ALDH8A1], in that order: 2.43 ± 0.15 and 2.62 ± 0.2.
As for RTPLMKAARAGHVCTVQFLISKGA [ANKRD17], the protein stability index is, setting by setting: (treatment: DMSO) 2.27 ± 0.37; (treatment: MLN4924 1 uM, 8 h) 2.46 ± 0.33.
Consider RVGIFLDYEAGTLSFYNVTDRSHI [TRIM39], for which the protein stability index worked out at 2.6 ± 0.77 (treatment: DMSO) and 2.26 ± 0.35 (treatment: MLN4924 1 uM, 8 h).
For RVGKWHQDFPVKKRKKLSTWKQEL [ZNF75A], in that order: 2.7 ± 0.29 and 2.92 ± 0.4.
On the same counts, the results for RVLSPLHRGPSGHTEASAQRSHMG are 4.1 ± 0.063 and 4.19 ± 0.16.
For RYSTNLSNHVDDFTTFRGTELSFL [EDNRA], in that order: 2.58 ± 0.17 and 2.54 ± 0.21.
For SAAQTDPTTGYRRLLRFSSQIHNN [LOXL2], the protein stability index stood at 3.1 ± 0.2 (treatment: DMSO) and 3.23 ± 0.17 (treatment: MLN4924 1 uM, 8 h).
For SAEEVRFPVSVTQQSPAAVSMETY [C2CD2L], in that order: 4.52 ± 0.33 and 4.71 ± 0.14.
With SAENSVAKKEDKVPVKKQKTRTVF [NANOGP8], the protein stability index is 4.21 ± 0.33 (treatment: DMSO) and 4.29 ± 0.34 (treatment: MLN4924 1 uM, 8 h).
On the same counts, the results for SAERYNPRTNQWSPVVAMTSRRSG [KLHL20] are 4.22 ± 0.061 and 4.43 ± 0.16.
On the same counts, the results for SAPATAKENAAAPSPVRAPAPSPA [PALM] are 5.18 ± 0.21 and 5.34 ± 0.17.
As to SASEILYSAPPGDPLSTNYSLAPN [NFE2L1], the protein stability index is 4.16 ± 0.29 (treatment: DMSO) and 4.12 ± 0.28 (treatment: MLN4924 1 uM, 8 h).
Consider SASEPQPASQAASSSSASADLLAG [SNAP91], for which the protein stability index is 5.51 ± 0.17 (treatment: DMSO) and 5.41 ± 0.19 (treatment: MLN4924 1 uM, 8 h).
For SAVEGAPPARPRPRSPECRMIPGQ [IRX6], in that order: 4.86 ± 0.24 and 4.96 ± 0.32.
For SCCFDPDSQRVASVSLDRCIKIWD [WDR88], in that order: 2.44 ± 0.14 and 2.57 ± 0.36.
For SCDDLMGGGGLHSVGTYIIDLLTF [GFOD1], in that order: 2.75 ± 0.72 and 2.41 ± 0.29.
As for SCLRRRRHPPKVGDDSDLSEGFES [SMG5], the protein stability index runs as follows: (treatment: DMSO) 5.02 ± 0.32; (treatment: MLN4924 1 uM, 8 h) 4.93 ± 0.058.
Take SDKDKAVGIFNTVINPMLNPIIYS [OR3A1]: the protein stability index by setting is: (treatment: DMSO) 2.54 ± 0.3; (treatment: MLN4924 1 uM, 8 h) 2.71 ± 0.25.
Consider SDKYPIQDTELPKAEECDTITLNC [EDARADD], for which the protein stability index is, setting by setting: (treatment: DMSO) 5.25 ± 0.41; (treatment: MLN4924 1 uM, 8 h) 5.26 ± 0.21.
On the same counts, the results for SDLSRRSSSTMSKSEYMEIEEDMN [KCNA1] are 5.21 ± 0.33 and 5.38 ± 0.1.
On to SDNILSPVMNGGVQTWTQPRLCYL [PDZK1], for which the protein stability index is, setting by setting: (treatment: DMSO) 2.19 ± 0.31; (treatment: MLN4924 1 uM, 8 h) 2.46 ± 0.56.
Turning to SDNLLVILKRKWWKYILLGLADVE [SLC35F2], the protein stability index is 2.38 ± 0.21 (treatment: DMSO) and 2.31 ± 0.73 (treatment: MLN4924 1 uM, 8 h).
Take SEDAVGGATLGQTTSEEAVGGATL [HDAC6]: the protein stability index was 5.54 ± 0.15 (treatment: DMSO) and 5.18 ± 0.4 (treatment: MLN4924 1 uM, 8 h).
SELCIWLGSQIKSLCNLEESITSA [FAM98B] returned a protein stability index (treatment: DMSO) of 1.97 ± 0.23 and a protein stability index (treatment: MLN4924 1 uM, 8 h) of 2.55 ± 0.18.
On the same counts, the results for SEMLDITMKESLTTREIRRQEAIY [NET1] are 3.75 ± 0.18 and 3.91 ± 0.33.
For SESGADTISVNQTRVNLSSDTEST [DLC1], the protein stability index is, setting by setting: (treatment: DMSO) 5.33 ± 0.4; (treatment: MLN4924 1 uM, 8 h) 5.3 ± 0.58.
For SESQLASTESDKPTTGRVYESDSS [C18orf25], in that order: 5.5 ± 0.15 and 5.44 ± 0.26.
In the case of SETPQETYRKVMNWKETLVFPPEV [STK38L], the protein stability index was 3.61 ± 0.53 (treatment: DMSO) and 3.7 ± 0.3 (treatment: MLN4924 1 uM, 8 h).
SEVEELNMSLTALREKLLEAEQSL [TEKT4]: the protein stability index reads like this: (treatment: DMSO) 3.52 ± 0.35; (treatment: MLN4924 1 uM, 8 h) 3.87 ± 0.2.
For SEVFGPERMPPSGAARSFQEVTEP [PXN], in that order: 4.77 ± 0.32 and 5.19 ± 0.21.
SFRRNVGRVLLANSTQADEGKTKK [FBXO34]: the protein stability index runs as follows: (treatment: DMSO) 4.71 ± 0.46; (treatment: MLN4924 1 uM, 8 h) 4.85 ± 0.35.
On the same counts, the results for SFSSLEPDNEQLMEEVISPRQVSY [IQUB] are 4.29 ± 0.2 and 4.56 ± 0.22.
For SFVLKNFPALLSTGEFLKLPFERL [KLHL13], in that order: 1.94 ± 0.42 and 2.07 ± 0.42.
For SGGYWVGMSTIRPNPGFSMLDFLS [APMAP], in that order: 2.1 ± 0.14 and 2.32 ± 0.97.
Turning to SGITIPKPPKPPDKPLMPYMRYSR [SMARCE1], the protein stability index reads like this: (treatment: DMSO) 2.68 ± 0.25; (treatment: MLN4924 1 uM, 8 h) 3.32 ± 0.23.
For SGLIQTVFISSYMVLAPVFGYLGD [SPNS1], in that order: 3.5 ± 0.3 and 3.16 ± 0.22.
For SGSESDHTTRSSLRGPRERAPSER [DVL3], in that order: 5.33 ± 0.32 and 5.39 ± 0.24.
Turning to SHGVRNKCLQLLGNLGSLEKSVTK [INTS4], the protein stability index (treatment: DMSO) was determined as 3.23 ± 0.27 and the protein stability index (treatment: MLN4924 1 uM, 8 h) was determined as 3.28 ± 0.22.
For SIVAVGFHIFRTLEVNRLMGKLLQ [PKD2L1], in that order: 3.03 ± 0.56 and 2.55 ± 0.5.
On the same counts, the results for SKLEERFGPDSKSSALACTLPTLP [NCF4] are 4.04 ± 0.19 and 4.21 ± 0.17.
On the same counts, the results for SLLDELMEVQHFRTIYHMFIAGLC [SOAT2] are 2.59 ± 0.55 and 2.49 ± 0.42.
For the sequence SLLKKPDGVKESTESSNTTIEDED [CAMK2D], the protein stability index (treatment: DMSO) stood at 5.52 ± 0.11 and the protein stability index (treatment: MLN4924 1 uM, 8 h) was 5.43 ± 0.19.
On the same counts, the results for SLNSTFGSTNLTGLFFPPQLNGTA [NFE2L1] are 2.52 ± 0.35 and 2.92 ± 0.38.
For the sequence SLQSCMHFQPNSPASDLEAALEAA [NANOGP8], the protein stability index reads like this: (treatment: DMSO) 4.6 ± 0.22; (treatment: MLN4924 1 uM, 8 h) 4.63 ± 0.27.
On the same counts, the results for SLRGRAWQYLSGGKVKLQQNPGKF [TBC1D10A] are 3.13 ± 0.52 and 2.94 ± 0.29.
For SLRRRGASAAARLGCNRQSWCLKR [TRIM14], in that order: 3.28 ± 0.28 and 3.16 ± 0.58.
On the same counts, the results for SLSYTVLIVGRIAIGVSISLSSIA [SLC2A12] are 3.02 ± 0.43 and 3.37 ± 0.23.
Take SLVLPWSFPLEWAPQNLTRWTFEK [TOR1AIP2]: the protein stability index runs as follows: (treatment: DMSO) 2.14 ± 0.44; (treatment: MLN4924 1 uM, 8 h) 2.29 ± 0.32.
On the same counts, the results for SNEWKTVVGGAMFFIGFTALVIMW [COX4I1] are 3.09 ± 0.14 and 3.06 ± 0.27.
In the case of SNRGAYVKLGPALTPHIVQYQANK [PPEF2], the protein stability index was determined as 2.9 ± 0.38 (treatment: DMSO) and 2.99 ± 0.41 (treatment: MLN4924 1 uM, 8 h).
For SPEPGTPAAPTPESFTVHFLPLNS [DNAAF3], in that order: 3.55 ± 0.35 and 3.5 ± 0.22.
On the same counts, the results for SPPEASPGPPAAPRARRRLGSGPD [PWWP2B] are 5.22 ± 0.39 and 5.47 ± 0.31.
With SPVTATLSDEDDGFVDLLDGENLK [CDC25A], the protein stability index was 5.4 ± 0.21 (treatment: DMSO) and 5.52 ± 0.13 (treatment: MLN4924 1 uM, 8 h).
On the same counts, the results for SQKVPLRRMCFVDPVRQCAECALV [ZFYVE21] are 2.21 ± 0.2 and 2.29 ± 0.23.
Regarding SQSLCLNKPTMSFKDYIQERSDPV [ETS2], the protein stability index runs as follows: (treatment: DMSO) 3.54 ± 0.32; (treatment: MLN4924 1 uM, 8 h) 3.67 ± 0.53.
On the same counts, the results for SRRVIAANNRILAERIAKEIQVIP [IMPA1] are 2.46 ± 0.34 and 2.69 ± 0.12.
Regarding SRTQEPSLGKQKVFIIRKSLLDEL [SOAT2], the protein stability index stood at 2.04 ± 0.31 (treatment: DMSO) and 2.23 ± 0.34 (treatment: MLN4924 1 uM, 8 h).
On the same counts, the results for SRTSCRLSGGLGAGSCRLGSAGGL [KRT17] are 2.33 ± 0.44 and 2.23 ± 0.36.
For SRVKGSAPEIDPSSDGSNFGWETK [KMT2E], in that order: 4.83 ± 0.4 and 4.83 ± 0.15.
For the sequence SSALSQSGGGSTSAAGIEARSRAL [SPACA3], the protein stability index reads like this: (treatment: DMSO) 4.76 ± 0.41; (treatment: MLN4924 1 uM, 8 h) 4.82 ± 0.064.
For SSGEDKENDGFVFKMPWKPTHPSS [CDC25B], in that order: 3.92 ± 0.22 and 4.16 ± 0.25.
In the case of SSPAGLSREYKLVMLGAGGVGKSA [RIT1], the protein stability index reads like this: (treatment: DMSO) 3.17 ± 0.62; (treatment: MLN4924 1 uM, 8 h) 2.96 ± 0.22.
For SSPQGVQLDIASQSLDQEILLKVK [BCL2L13], in that order: 3.58 ± 0.4 and 3.83 ± 0.1.
For SSRLPQPSGAGKTVVGVPSGKVSS [ZC2HC1A], in that order: 4.62 ± 0.13 and 4.81 ± 0.12.
For the sequence SSVQKALFEEEDHVKKLQQKVATL [CCDC3], the protein stability index is 4.46 ± 0.33 (treatment: DMSO) and 4.49 ± 0.32 (treatment: MLN4924 1 uM, 8 h).

(Values after the supplement of paper PMC10567573.)
